{"source": "patent US20240041922A1", "about": "“METHODS AND COMPOSITIONS” (Monash University, priority 2020, published 2024)", "molecules": {"B1": {"name": "mrCCL4: recombinant murine CCL4/MIP-1β (PeproTech), cognate CCR5 ligand (protein)", "chain": "APMGSDPPTSCCFSYTSRQLHRSFVMDYYETSSLCSKPAVVFLTKRGRQICANPSEPWVTEYMSDLELN"}, "B2": {"name": "mrCCL8: recombinant murine CCL8/MCP-2 (PeproTech), canonical CCR5 ligand (protein)", "chain": "GPDKAPVTCCFHVLKLKIPLRVLKSYERINNIQCPMEAVVFQTKQGMSLCVDPTQKWVSEYMEILDQKSQILQP"}, "B3": {"name": "hrNAMPT(2): recombinant human visfatin (Enzo Life Sciences) (protein)", "chain": "MNPAAEAEFNILLATDSYKVTHYKQYPPNTSKVYSYFECREKKTENSKLRKVKYEETVFYGLQYILNKYLKGKVVTKEKIQEAKDVYKEHFQDDVFNEKGWNYILEKYDGHLPIEIKAVPEGFVIPRGNVLFTVENTDPECYWLTNWIETILVQSWYPITVATNSREQKKILAKYLLETSGNLDGLEYKLHDFGYRGVSSQETAGIGASAHLVNFKGTDTVAGLALIKKYYGTKDPVPGYSVPAAEHSTITAWGKDHEKDAFEHIVTQFSSVPVSVVSDSYDIYNACEKIWGEDLRHLIVSRSTQAPLIIRPDSGNPLDTVLKVLEILGKKFPVTENSKGYKLLPPYLRVIQGDGVDINTLQEIVEGMKQKMWSIENIAFGSGGGLLQKLTRDLLNCSFKCSYVVTNGLGINVFKDPVADPNKRSKKGRLSLHRTPAGNFVTLEEGKGDLEEYGQDLLHTVFKNGKVTKSYSFDEIRKNAQLNIELEAAHH"}, "B4": {"name": "hrNAMPT(1): recombinant human visfatin (PeproTech) (protein)", "chain": "PPNTSKVYSYFECREKKTENSKLRKVKYEETVFYGLQYILNKYLKGKVVTKEKIQEAKDVYKEHFQDDVFNEKGWNYILEKYDGHLPIEIKAVPEGFVIPRGNVLFTVENTDPECYWLTNWIETILVQSWYPITVATNSREQKKILAKYLLETSGNLDGLEYKLHDFGYRGVSSQETAGIGASAHLVNFKGTDTVAGLALIKKYYGTKDPVPGYSVPAAEHSTITAWGKDHEKDAFEHIVTQFSSVPVSVVSDSYDIYNACEKIWGEDLRHLIVSRSTQAPLIIRPDSGNPLDTVLKVLEILGKKFPVTENSKGYKLLPPYLRVIQGDGVDINTLQEIVEGMKQKMWSIENIAFGSGGGLLQKLTRDLLNCSFKCSYVVTNGLGINVFKDPVADPNKRSKKGRLSLHRTPAGNFVTLEEGKGDLEEYGQDLLHTVFKNGKVTKSYSFDEIRKNAQLNIELEAAHH"}, "B5": {"name": "NAMPTcif: recombinantly produced C-terminal fragment of NAMPT, termed cytokine finger (cif) (protein)", "chain": "MSYVVTNGLGVNVFKDPVADPNKRSKKGRLSLHRTPAGNFVTLEEGKGDLEEYGHDLLHTVFKNGKVTKSYSFDEVRKNAQLNIEQDVAPHHHHHHH"}}, "key": {"C2C12 myoblasts": {"test_system": "C2C12 myoblasts", "test": "C2C12 myoblast proliferation (EdU incorporation)", "assay_type": "cell-based, mouse", "details": "6 h in growth media", "method": "Larvae: Labelling and detection was carried out as previously described (Nguyen, P. D. et al. Muscle stem cells undergo extensive clonal drift during tissue growth via Meox1-mediated induction of G2 cell-cycle arrest. […] Cell culture: Cells were incubated for 1 h in media supplemented with 10 μM EdU. […] Cells were processed using the Click-iTTM EdU Alexa FluroTM 647 imaging Kit (Thermo Fisher) following the manufacturer's protocol. The mouse muscle cell line […]. Serial passaging and differentiation of myogenic cells isolated from dystrophic mouse muscle. Nature 270, 725 (1977) were cultured in growth media (Dulbecco's Modified Eagle Medium (4.5 g/l D-Glucose, No L Glutamine, No Sodium Pyruvate (Gibco))+20% Fetal Bovine Solution-One Shot (Gibco)+1% Glut Max 100x (Gibco)). Cells were maintained at 37° C., 5% CO2. Cells at 70% confluence, passage 8 were extracted from T75 flasks with 0.025% Tryspin EDTA (Gibco), neutralised in growth media, spun at 180×g for 5 min to pellet cells. The cells were then resuspended in 10 ml of fresh growth media. 500 μl of cells were plated on a 8-well on cover glass II (Sarstedt) chamber slide at a density of 1×10^3 cells/ml. Cells were left 4 h at 37° C. to re-attach. For drug treatments, the media were supplemented with appropriate doses and cultured for 6 h."}, "PAX7+ satellite cells": {"test_system": "PAX7+ satellite cells", "test": "Primary mouse myoblast mono- and co-cultures, PAX7+ satellite cell proliferation (EdU)", "assay_type": "cell-based", "details": "myoblast monoculture (MB) and MB+3T3 co-culture, 24 h", "method": "Larvae: Labelling and detection was carried out as previously described (Nguyen, P. D. et al. Muscle stem cells undergo extensive clonal drift during tissue growth via Meox1-mediated induction of G2 cell-cycle arrest. […] Cell culture: Cells were incubated for 1 h in media supplemented with 10 μM EdU. […] Cells were processed using the Click-iTTM EdU Alexa FluroTM 647 imaging Kit (Thermo Fisher) following the manufacturer's protocol. For isolation of primary mouse myoblasts, limb skeletal muscle from E17.5 C57/BL6J mice were minced and digested in 0.125% Trypsin at 37° C. for 20 min. […] Myoblasts were again depleted for fibroblasts prior to co-culturing on gelatin-coated 48 well plates in DMEM+20% FBS+10% L929-conditioned medium. 100,000 myoblasts were plated with either 7,500 MafB/c-Maf deficient (Maf-DKO) macrophages (Aziz, A., Soucie, E., Sarrazin, […]. MafB/c-Maf deficiency enables self-renewal of differentiated functional macrophages. […] For drug treatments, the media were supplemented with appropriate doses and cultured for 24 h."}, "[1]": {"test_system": "wound-resident muscle stem cells", "test": "Larval zebrafish needle stab muscle injury, wound site proliferation (EdU)", "assay_type": "in vivo", "details": "needle stab injury; for wound site muscle stem cell proliferation: agent alone", "method": "4dpf larvae were anaesthetized in 0.01% tricaine (MS-222) (Sigma-Aldrich) in Ringer's solution. Mechanical injures were targeted either to the dorsal or ventral myotome above the cloaca when the larvae is oriented dorsal to the top, anterior to the left. Needle-stick injury was carried out as previously described (Gurevich, D. B. el al. Asymmetric division of clonal muscle stem cells co-ordinate muscle regeneration in vivo. Science 353 6295 aad9969 (2016)). Briefly, the myotome was subjected to a single 30-gauge needle puncture that generates an extensive injury with many damaged muscle fibres. For laser-induced injury, anaesthetised larvae were mounted in a thin layer of 1% low-melt agarose in Ringer's solution. Injuries were carried out using a UV-nitrogen laser pulsed through a coumarin 440 nm dye cell coupled to a Zeiss Axioplan microscope (MicroPoint Laser System, Andor Technology). On average a laser injury required pulses for 5-10 sec from laser beams focused through a 40× water immersion objective. For time-lapse analysis of the immediate response to injury, muscle fibre ablations were achieved using a SIM scanner (Olympus) at 790 nm and 200 msec dwell time at 100% laser power on an Olympus FVMPE-RS upright multi-photon microscope equipped with a 25×/1.05 water immersion objective. Injury-responding macrophages were tracked using the manual tracking plugin in Fiji.\nCell ablation was carried out as previously described (Pisharath, H. & Parsons, M. J. in Zebrafish 133-143 (Springer, 2009)) with minor modifications. Larvae at the appropriate stage were incubated in 5-10 mM metronidazole (Mtz) (Sigma-Aldrich) in Ringer's solution and daily refreshed until experimental end point. Drug treatments were carried out by incubating 4 dpf needle stick injured larvae in 5 and 10 μM cenicriviroc (CVC) (Med Chem Express) and 5 and 10 μM maraviroc (MVC) (Med Chem Express) in Ringer's solution immediately post injury and refreshed daily.\nThe effect of drug treatment on laser ablation muscle injury was assayed by treating larvae with 5 μM CVC for 2 h prior to injury and with larvae being maintained in the drug until experimental end point. […] Chemokine supplementation experiments were carried out in plasticware coated with 0.1% bovine serum albumin (BSA) overnight (rinsed in Ringer's solution prior to use) to minimise protein adsorption. Larvae were treated with 57 nM recombinant human visfatin (hrNAMPT(1)) (PeproTech), 57 nM recombinant murine CCL8/MCP-2 (mrCCL8) (PeproTech) and combinations with Mtz and CVC.\nLarvae: Labelling and detection was carried out as previously described (Nguyen, P. D. et al. Muscle stem cells undergo extensive clonal drift during tissue growth via Meox1-mediated induction of G2 cell-cycle arrest. Cell Stem Cell 21, 107-119. e106 (2017))^55 with minor alteration. 6 dpf/2 dpi larvae were pulsed with 2.5 nM EdU (Thermo Fisher) for 1h and chased for a further 1.5 h prior to fixation. Cell culture: Cells were incubated for 1 h in media supplemented with 10 μM EdU. Following Edu pulse, C2C12 cells were fixed immediately, while primary mouse myoblast co-cultures were rinsed in PBS, replaced with media and incubated for a further 2 h following which the cells were fixed. Cells were processed using the Click-iT™ EdU Alexa Fluro™ 647 imaging Kit (Thermo Fisher) following the manufacturer's protocol."}, "[2]": {"molecular_target": "T1, human recombinant CCR5 (hrCCR5) (Homo sapiens, UniProt P51681)", "T1 construct": "purchased Abcam", "T1 sequence (P51681 whole entry, the tested form may be a part)": "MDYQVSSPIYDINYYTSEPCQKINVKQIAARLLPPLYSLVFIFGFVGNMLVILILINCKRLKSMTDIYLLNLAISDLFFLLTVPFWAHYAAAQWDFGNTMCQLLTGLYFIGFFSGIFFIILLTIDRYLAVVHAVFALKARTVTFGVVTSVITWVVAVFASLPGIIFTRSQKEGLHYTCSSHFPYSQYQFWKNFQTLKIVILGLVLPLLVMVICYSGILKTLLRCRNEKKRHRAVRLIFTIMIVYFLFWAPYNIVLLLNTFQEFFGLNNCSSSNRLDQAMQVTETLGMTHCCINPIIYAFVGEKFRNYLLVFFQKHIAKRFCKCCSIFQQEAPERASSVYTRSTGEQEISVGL", "test": "hrNAMPT binding to hrCCR5 (ELISA)", "details": "hrNAMPT(1) 0-800 nM on hrCCR5-coated ELISA plates, BSA binding deducted; read-out: dissociation constant (KD)", "method": "hrNAMPT binding to hrCCR5: ELISA plates (Medium binding, Greiner Bio-One) were coated with 1% BSA or 20 nM of GST-fused recombinant human CCR5 (hrCCR5, Abcam) in PBS overnight at 4° C. Wells were blocked for 1 h at room temperature with 1% BSA in PBS containing 0.05% Tween-20 (PBS-T). Wells were washed 3 times with PBS-T and further incubated with hrNAMPT(1) (Peprotech) at increasing concentration (0 nM to 800 nM) for 1 h in PBS-T with 0.1% BSA."}, "CCR5": {"test_system": "CCR5", "test": "NAMPTcif competition with NAMPT binding to CCR5", "source_text": "(§1) As described above NAMPT, is a large homodimeric intracellular enzyme which acts as cytokine when released in the extracellular milieu. […] Moreover, the domain extends out from the core protein structure potentially facilitating receptor binding."}, "satellite cells": {"test_system": "satellite cells", "test": "Satellite cell stimulation with NAMPTcif (proliferation)", "assay_type": "cell-based", "details": "compared to no stimulation control", "source_text": "as §1"}}, "note": "“Also recorded” adds a separate entry of the source.", "data": [{"molecule": "B1", "values": [{"measurement": "myoblast proliferation, factor added alone", "setting": "C2C12 myoblasts", "value": "functioned to enhance C2C12 proliferation"}, {"measurement": "myoblast proliferation, factor added alone", "setting": "C2C12 myoblasts; listed as CCL4/MIP-1β", "value": "could be recapitulated"}, {"measurement": "satellite cell proliferation on supplementation", "setting": "PAX7+ satellite cells", "value": "enhanced proliferation; also recorded: mirrored the results of NAMPT addition"}, {"measurement": "proliferation external to the injury zone", "setting": "[1]", "value": "failed to demonstrate discrimination between injury region and sites external to the damage"}, {"measurement": "wound site muscle stem cell proliferation", "setting": "[1]", "value": "functioned to enhance proliferation"}]}, {"molecule": "B2", "values": [{"measurement": "myoblast proliferation, factor added alone", "setting": "C2C12 myoblasts", "value": "functioned to enhance C2C12 proliferation"}, {"measurement": "myoblast proliferation, factor added alone", "setting": "C2C12 myoblasts; listed as CCL8/MCP-2", "value": "could be recapitulated"}, {"measurement": "increase in cell proliferation external to the site of injury vs control", "setting": "[1]", "value": "43.03±4.46", "unit": "%"}, {"measurement": "proliferation external to the injury zone", "setting": "[1]", "value": "also increased proliferation external to the injury zone"}, {"measurement": "wound site muscle stem cell proliferation", "setting": "[1]", "value": "functioned to increase proliferation in the wound site"}, {"measurement": "increase in muscle stem cell proliferation within the wound site vs control", "setting": "[1]; supplementation", "value": "28.34±4.48", "unit": "%"}]}, {"molecule": "B3", "values": [{"measurement": "myoblast proliferation, factor added alone", "setting": "C2C12 myoblasts", "value": "dose dependent increase in myoblast proliferation; also recorded: comparable and significant dose dependent increases in myoblast proliferation"}]}, {"molecule": "B4", "values": [{"measurement": "Kd", "setting": "[2]", "value": "172 ± 18", "unit": "nM"}, {"measurement": "myoblast proliferation, factor added alone", "setting": "C2C12 myoblasts", "value": "dose dependent increase in myoblast proliferation; also recorded: comparable and significant dose dependent increases in myoblast proliferation"}]}, {"molecule": "B5", "values": [{"measurement": "inhibition of NAMPT binding to CCR5", "setting": "CCR5", "value": "inhibits the binding of NAMPT to CCR5"}, {"measurement": "satellite cell proliferation", "setting": "satellite cells", "value": "promotes proliferation in a dose-dependent manner"}, {"measurement": "satellite cell proliferation", "setting": "satellite cells; listed as cif", "value": "stimulates satellite cell proliferation in a dose-dependent manner"}]}]}
